System: target antigen-expressing cell line
Assay: Jurkat NFAT-GFP assay, coculture with target cell lines expressing the respective target antigen (summary Table 10A)
Assay type: cell-based, human
Parameters: key: The signs +/−, +, 2+ etc. after the name of the cell lines indicate the relative degree of positivity on the Jurkat-NFAT-GFP assay as measured by the % GFP positive cells; +: relative degree of positivity on the Jurkat-NFAT-GFP assay as measured by the % GFP positive cells; 2+: relative degree of positivity on the Jurkat-NFAT-GFP assay as measured by the % GFP positive cells
How it was run: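 Jurkat cells carrying an NFAT-driven GFP reporter and lentivirally expressing a SIR were cocultured with antigen-bearing target cells (E:T ~1:2) for about 4–18 h. GFP induction read by flow cytometry as % GFP+ cells, scored positive and graded (+/−, +, 2+) against parental Jurkat-NFAT-GFP cells.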

| Molecule | NFAT-GFP ASSAY Positive Cell lines (coculture with MCF7 cells) | NFAT-GFP ASSAY Positive Cell lines (coculture with SKBR3 cells) | NFAT-GFP ASSAY Positive Cell lines (coculture with L363 cells) | also measured |
| --- | --- | --- | --- | --- |
| 101216-Y07 (protein, Synthetic Immune Receptor (SIR)) MALPVTALLLPLALLLHAARPDIQMTQSPSSLSASVGDRVTITCRASQGISSWLAWYQQKPEKAPKSLIYAASSLQSGVPSRFSGSGSGTDFTLTISSLQPEDFATYYCQQYNSYPPTFGGGTKVEIKLEGKPIPNPLLGLDSTGSGEDLKNVFPPEVAVFEPSKAEIAHTQKATLVCLATGFYPDHVELSWWVNGKEVHSGVCTDPQPLKEQPALNDSRYCLSSRLRVSATFWQNPRNHFRCQVQFYGLSENDEWTQDRAKPVTQIVSAEAWGRADCGITSASYHQGVLSATILYEILLGKATLYAVLVSALVLMAMVKRKDSRGRAKRSGSGATNFSLLKQAGDVEENPGPTSMDWIWRILFLVGAATGAHSFEEVQLVESGGGLVQPGESLRLSCVASGFTFSRYKMNWVRQAPGKGLEWVSYISRSGRDIYYADSVKGRFTISRDNAKNSLYLQMNSLRDEDTAVYYCAGTVTTYYYFGMDVWGHGTTVTVSSTREQKLISEEDGSGIQNPDPAVYQLRDSKSSDKSVCLFTDFDSQTNVSQSKDSDVYITDKCVLDMRSMDFKSNSAVAWSNKSDFACANAFNNSIIPEDTFFPSSDVPCDVKLVEKSFETDTNLNFQNLSVIGFRILLLKVAGFNLLMTLRLWSSRAKRSGSGVKQTLNFDLLKLAGDVESNPGPSRGHMTEYKPTVRLATRDDVPRAVRTLAAAFADYPATRHTVDPDRHIERVTELQELFLTRVGLDIGKVWVADDGAAVAVWTTPESVEAGAVFAEIGPRMAELSGSRLAAQQQMEGLLAPHRPKEPAWFLATVGVSPDHQGKGLGSAVVLPGVEAAERAGVPAFLETSAPRNLPFYERLGFTVTADVEVPEGPRTWCMTRKPGA |  |  |  | NFAT-GFP ASSAY Positive Cell lines (coculture with H460 cells): H460 (+/−), HCT116; NFAT-GFP ASSAY Positive Cell lines (coculture with HCT116 cells): (+/−) |
| 040716-B03 (protein, Synthetic Immune Receptor (SIR)) MALPVTALLLPLALLLHAARPLEGKPIPNPLLGLDSTGSGEDLKNVFPPEVAVFEPSKAEIAHTQKATLVCLATGFYPDHVELSWWVNGKEVHSGVCTDPQPLKEQPALNDSRYCLSSRLRVSATFWQNPRNHFRCQVQFYGLSENDEWTQDRAKPVTQIVSAEAWGRADCGITSASYHQGVLSATILYEILLGKATLYAVLVSALVLMAMVKRKDSRGRAKRSGSGATNFSLLKQAGDVEENPGPTSMALPVTALLLPLALLLHAARPDEFDVQLVESGGGLVQPGGSLRLSCAASGSIGGLNAMAWYRQAPGKERELVAGIFGVGSTRYADSVKGRFTISRDNSKNTVYLQMNSLRPEDTAVYYCRMSSVTRGSSDYWGQGTLVTVSSLEGGGGSGGGGSGGGGSGSGGSGSGGSGSGGSGSGGSFEVQLVESGGSLVQPGGSLRLSCAASGFTFDDYAMSWVRQVPGKGLEWVSSINWSGTHTDYADSVKGRFTISRNNANNTLYLQMNSLKSEDTAVYYCAKNWRDAGTTWFEKSGSAGQGTQVTVSSTREQKLISEEDGSGIQNPDPAVYQLRDSKSSDKSVCLFTDFDSQTNVSQSKDSDVYITDKCVLDMRSMDFKSNSAVAWSNKSDFACANAFNNSIIPEDTFFPSSDVPCDVKLVEKSFETDTNLNFQNLSVIGFRILLLKVAGFNLLMTLRLWSSRAKRSGSGVKQTLNFDLLKLAGDVESNPGPSRGHMTEYKPTVRLATRDDVPRAVRTLAAAFADYPATRHTVDPDRHIERVTELQELFLTRVGLDIGKVWVADDGAAVAVWTTPESVEAGAVFAEIGPRMAELSGSRLAAQQQMEGLLAPHRPKEPAWFLATVGVSPDHQGKGLGSAVVLPGVEAAERAGVPAFLETSAPRNLPFYERLGFTVTADVEVPEGPRTWCMTRKPGA | MCF7 (+/−), SKBR3 | (+), A431 (+) |  | NFAT-GFP ASSAY Positive Cell lines (coculture with A431 cells): (+), A431 (+) |
| 031517-Q04 (protein) MALPVTALLLPLALLLHAARPLEGKPIPNPLLGLDSTGSGEDLKNVFPPEVAVFEPSKAEIAHTQKATLVCLATGFYPDHVELSWWVNGKEVHSGVCTDPQPLKEQPALNDSRYCLSSRLRVSATFWQNPRNHFRCQVQFYGLSENDEWTQDRAKPVTQIVSAEAWGRADCGITSASYHQGVLSATILYEILLGKATLYAVLVSALVLMAMVKRKDSRGRAKRSGSGATNFSLLKQAGDVEENPGPTSMALPVTALLLPLALLLHAARPQSVVTQPASVSGSPGQSITISCTGTSSDVGGYNYVSWYQQHPGKAPKLMIYDVSKRPSGVSNRFSGSKSGNTASLTISGLQAEDEADYYCSSYTSSSTLVFGGGTKLTVLGGGGGSGGGGSGGGGSEVQLVESGGAFVQPGGSLRLSCAASGFTFSSYAMTWVRQAPGKGLEWVSTISGRGRSTFYADSVKGRFTISRDNSKNTLYLQMNSLRAEDTAVYYCARYYHAGAFDLWGQGTLVTVSSTREQKLISEEDGSGIQNPDPAVYQLRDSKSSDKSVCLFTDFDSQTNVSQSKDSDVYITDKCVLDMRSMDFKSNSAVAWSNKSDFACANAFNNSIIPEDTFFPSSDVPCDVKLVEKSFETDTNLNFQNLSVIGFRILLLKVAGFNLLMTLRLWSSRAKRSGSGVKQTLNFDLLKLAGDVESNPGPSRGHMTEYKPTVRLATRDDVPRAVRTLAAAFADYPATRHTVDPDRHIERVTELQELFLTRVGLDIGKVWVADDGAAVAVWTTPESVEAGAVFAEIGPRMAELSGSRLAAQQQMEGLLAPHRPKEPAWFLATVGVSPDHQGKGLGSAVVLPGVEAAERAGVPAFLETSAPRNLPFYERLGFTVTADVEVPEGPRTWCMTRKPGA |  |  | L363 (+/−) |  |
| 060717-L04 (protein) MALPVTALLLPLALLLHAARPQSVVTQPASVSGSPGQSITISCTGTSSDVGGYNYVSWYQQHPGKAPKLMIYDVSKRPSGVSNRFSGSKSGNTASLTISGLQAEDEADYYCSSYTSSSTLVFGGGTKLTVLGLEIQNPDPAVYQLRDSKSSDKSVCLFTDFDSQTNVSQSKDSDVYITDKCVLDMRSMDFKSNSAVAWSNKSDFACANAFNNSIIPEDTFFPSSDVPCDVKLVEKSFETDTNLNFQNLSVIGFRILLLKVAGFNLLMTLRLWSSRAKRSGSGVKQTLNFDLLKLAGDVESNPGPTSMDWIWRILFLVGAATGAHSFEEVQLVESGGAFVQPGGSLRLSCAASGFTFSSYAMTWVRQAPGKGLEWVSTISGRGRSTFYADSVKGRFTISRDNSKNTLYLQMNSLRAEDTAVYYCARYYHAGAFDLWGQGTLVTVSSTREDLKNVFPPEVAVFEPSKAEIAHTQKATLVCLATGFYPDHVELSWWVNGKEVHSGVCTDPQPLKEQPALNDSRYCLSSRLRVSATFWQNPRNHFRCQVQFYGLSENDEWTQDRAKPVTQIVSAEAWGRADCGITSASYHQGVLSATILYEILLGKATLYAVLVSALVLMAMVKRKDSRGRAKRSGSGATNFSLLKQAGDVEENPGPSRGHMTEYKPTVRLATRDDVPRAVRTLAAAFADYPATRHTVDPDRHIERVTELQELFLTRVGLDIGKVWVADDGAAVAVWTTPESVEAGAVFAEIGPRMAELSGSRLAAQQQMEGLLAPHRPKEPAWFLATVGVSPDHQGKGLGSAVVLPGVEAAERAGVPAFLETSAPRNLPFYERLGFTVTADVEVPEGPRTWCMTRKPGA |  |  | 2+ | NFAT-GFP ASSAY Positive Cell lines (coculture with U266 cells): + |
| 021517-I01 (protein) MALPVTALLLPLALLLHAARPLEGKPIPNPLLGLDSTGSGEDLKNVFPPEVAVFEPSKAEIAHTQKATLVCLATGFYPDHVELSWWVNGKEVHSGVCTDPQPLKEQPALNDSRYCLSSRLRVSATFWQNPRNHFRCQVQFYGLSENDEWTQDRAKPVTQIVSAEAWGRADCGITSASYHQGVLSATILYEILLGKATLYAVLVSALVLMAMVKRKDSRGRAKRSGSGATNFSLLKQAGDVEENPGPTSMALPVTALLLPLALLLHAARPQSVVTQPPSVSGAPGQRVTISCTGSSSNIGAGYDVHWYQQLPGTAPKLLIYGNSNRPSGVPDRFSGSKSGTSASLAITGLQAEDEADYYCQSYDSSLSGSYVFGTGTKLTVLGGGGGSGGGGSGGGGSEVQLVETGGNLVQPGASLRLSCAASGFSFSGTAMHWVRQAPGKGLEWVSTISSTGRSTYYRDSVKGRFTISRDNSKNTLYLQMNSLRGEDTAVYYCARVSFDYWGQGTLVTVSSTREQKLISEEDGSGIQNPDPAVYQLRDSKSSDKSVCLFTDFDSQTNVSQSKDSDVYITDKCVLDMRSMDFKSNSAVAWSNKSDFACANAFNNSIIPEDTFFPSSDVPCDVKLVEKSFETDTNLNFQNLSVIGFRILLLKVAGFNLLMTLRLWSSRAKRSGSGVKQTLNFDLLKLAGDVESNPGPSRGHMTEYKPTVRLATRDDVPRAVRTLAAAFADYPATRHTVDPDRHIERVTELQELFLTRVGLDIGKVWVADDGAAVAVWTTPESVEAGAVFAEIGPRMAELSGSRLAAQQQMEGLLAPHRPKEPAWFLATVGVSPDHQGKGLGSAVVLPGVEAAERAGVPAFLETSAPRNLPFYERLGFTVTADVEVPEGPRTWCMTRKPGA |  |  | L363 (+/−) |  |
| 040716-H06 (protein, Polynucleotide encoding a Synthetic Immune Receptor (SIR)) MALPVTALLLPLALLLHAARPDEFDVQLVESGGGLVQPGGSLRLSCAASGSIGGLNAMAWYRQAPGKERELVAGIFGVGSTRYADSVKGRFTISRDNSKNTVYLQMNSLRPEDTAVYYCRMSSVTRGSSDYWGQGTLVTVSSLEGGGGSGGGGSGGGGSGSGGSGSGGSGSGGSGSGGSFEVQLVESGGSLVQPGGSLRLSCAASGFTFDDYAMSWVRQVPGKGLEWVSSINWSGTHTDYADSVKGRFTISRNNANNTLYLQMNSLKSEDTAVYYCAKNWRDAGTTWFEKSGSAGQGTQVTVSSTREQKLISEEDGSGIQNPDPAVYQLRDSKSSDKSVCLFTDFDSQTNVSQSKDSDVYITDKCVLDMRSMDFKSNSAVAWSNKSDFACANAFNNSIIPEDTFFPSSDVPCDVKLVEKSFETDTNLNFQNLSVIGFRILLLKVAGFNLLMTLRLWSSRAKRSGSGVKQTLNFDLLKLAGDVESNPGPSRGHMTEYKPTVRLATRDDVPRAVRTLAAAFADYPATRHTVDPDRHIERVTELQELFLTRVGLDIGKVWVADDGAAVAVWTTPESVEAGAVFAEIGPRMAELSGSRLAAQQQMEGLLAPHRPKEPAWFLATVGVSPDHQGKGLGSAVVLPGVEAAERAGVPAFLETSAPRNLPFYERLGFTVTADVEVPEGPRTWCMTRKPGA | MCF7 (+), SKBR3 (+) | MCF7 (+), SKBR3 (+) |  |  |
